From patent publication EP4484444A1

Target: T1, recombinant human PCPE-2 (procollagen C-proteinase enhancer 2) fused to a 6 Histidine-tag at the N-terminus (human) (UniProt Q9UKZ9)
T1 sequence: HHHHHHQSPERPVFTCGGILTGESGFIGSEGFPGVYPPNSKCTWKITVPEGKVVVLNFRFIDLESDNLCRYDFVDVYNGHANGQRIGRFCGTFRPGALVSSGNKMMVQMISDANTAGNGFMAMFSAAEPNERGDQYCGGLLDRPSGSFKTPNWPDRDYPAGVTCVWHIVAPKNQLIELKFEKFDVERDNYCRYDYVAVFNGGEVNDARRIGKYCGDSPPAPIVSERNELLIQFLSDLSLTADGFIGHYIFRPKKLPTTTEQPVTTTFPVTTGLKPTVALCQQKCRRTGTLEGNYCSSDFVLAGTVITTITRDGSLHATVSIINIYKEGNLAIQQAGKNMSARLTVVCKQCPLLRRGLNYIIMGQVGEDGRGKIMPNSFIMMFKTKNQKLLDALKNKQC
Assay: SPR competition: BMP-1 (200 nM) co-injected with PCPE-2 (200 nM) over immobilized C-propeptide III carrying PCPE-2

B1: human BMP-1 (bone morphogenetic protein-1) fused to a C-terminal Flag tag (enzyme, UniProt P13497-2 121-730, looked up, not shown: small tags and cut ends)
chain: AATSRPERVWPDGVIPFVIGGNFTGSQRAVFRQAMRHWEKHTCVTFLERTDEDSYIVFTYRPCGCCSYVGRRGGGPQAISIGKNCDKFGIVVHELGHVVGFWHEHTRPDRDRHVSIVRENIQPGQEYNFLKMEPQEVESLGETYDFDSIMHYARNTFSRGIFLDTIVPKYEVNGVKPPIGQRTRLSKGDIAQARKLYKCPACGETLQDSTGNFSSPEYPNGYSAHMHCVWRISVTPGEKIILNFTSLDLYRSRLCWYDYVEVRDGFWRKAPLRGRFCGSKLPEPIVSTDSRLWVEFRSSSNWVGKGFFAVYEAICGGDVKKDYGHIQSPNYPDDYRPSKVCIWRIQVSEGFHVGLTFQSFEIERHDSCAYDYLEVRDGHSESSTLIGRYCGYEKPDDIKSTSSRLWLKFVSDGSINKAGFAVNFFKEVDECSRPNRGGCEQRCLNTLGSYKCSCDPGYELAPDKRRCEAACGGFLTKLNGSITSPGWPKEYPPNKNCIWQLVAPTQYRISLQFDFFETEGNDVCKYDFVEVRSGLTADSKLHGKFCGSEKPEVITSQYNNMRVEFKSDNTVSKKGFKAHFFSEKRPALQPPRGRPHQLKFRVQKRNRTPQ
% inhibition: 77%
